The values that follow come from patent CN112225809A.

The experiment deals with hPD1/Fc of human IgG1 (fluorescently labelled) (human) (UniProt Q15116). Nature of the experiment: flow cytometry blocking assay: 100 ng hPD-1/hFc-FITC and antibody on SPC-A1-PDL1 cells. (In general: Flow cytometry measures light scatter and fluorescence of single cells or particles in a stream.)
Chain of UniProt Q15116 (Q15116 25-167 limits assumed): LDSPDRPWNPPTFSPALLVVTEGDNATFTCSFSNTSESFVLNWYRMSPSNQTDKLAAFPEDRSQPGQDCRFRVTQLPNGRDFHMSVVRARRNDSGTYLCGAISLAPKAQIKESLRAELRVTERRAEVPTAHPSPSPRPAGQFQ

B1: hUM1-30 (antibody, human IgG4 S228P, kappa, V domains shown)
VH: EVQLVESGGGLVQPGGSLRLSCAASGFTFSTYGMSWVRQAPGKGLEWVSTISGGGRYTYYPDSVKGRFTISRDNSKNTLYLQMNSLRAEDTAVYYCARQKGTTWFAHWGQGTLVTVSS
VL: DIQMTQSPSSLSASVGDRVTITCRASESVDDNGISFMNWFQQKPGKAPKLLIYAASNQGSGVPSRFSGSGSGTDFTLTISSLQPEDFATYYCQQSKEVPWTFGQGTKVEIKR
As for B1, the amount of antibody that blocks the binding of PD-1 to PD-L1 came to 1.6 µg.
